{
  "source": "FireProtDB (doi:10.1021/bi026827i)",
  "settings": "Saccharomyces cerevisiae (strain ATCC 204508 / S288c); pH 7; 25 °C; GdnHCl; CD; Tris 20 mM; NaCl 40 mM; structure 1YCC",
  "data": [
    {"substance": "Cytochrome c isoform 1 K10Q|K11Q, P00044 K10Q K11Q", "values": [
      {"measurement": "denaturant m value", "result": 3.06, "unit": "kcal/mol/M"},
      {"measurement": "denaturant midpoint (higher = more stable)", "result": 1.05, "unit": "M"},
      {"measurement": "unfolding free energy", "result": 3.2, "unit": "kcal/mol"}
    ]},
    {"substance": "Cytochrome c isoform 1 K17Q, P00044", "values": [
      {"measurement": "denaturant m value", "result": 5.33, "unit": "kcal/mol/M"},
      {"measurement": "denaturant midpoint (higher = more stable)", "result": 0.64, "unit": "M"},
      {"measurement": "unfolding free energy", "result": 3.37, "unit": "kcal/mol"}
    ]},
    {"substance": "Cytochrome c isoform 1 K28Q, P00044", "values": [
      {"measurement": "denaturant m value", "result": 3.2, "unit": "kcal/mol/M"},
      {"measurement": "denaturant midpoint (higher = more stable)", "result": 0.94, "unit": "M"},
      {"measurement": "unfolding free energy", "result": 2.96, "unit": "kcal/mol"}
    ]},
    {"substance": "Cytochrome c isoform 1 K33Q, P00044", "values": [
      {"measurement": "denaturant m value", "result": 3.7, "unit": "kcal/mol/M"},
      {"measurement": "denaturant midpoint (higher = more stable)", "result": 1.09, "unit": "M"},
      {"measurement": "unfolding free energy", "result": 4.04, "unit": "kcal/mol"}
    ]},
    {"substance": "Cytochrome c isoform 1 K60Q|K61Q, P00044 K60Q K61Q", "values": [
      {"measurement": "denaturant m value", "result": 3.06, "unit": "kcal/mol/M"},
      {"measurement": "denaturant midpoint (higher = more stable)", "result": 0.99, "unit": "M"},
      {"measurement": "unfolding free energy", "result": 3.04, "unit": "kcal/mol"}
    ]}
  ]
}
